Assay [1] concerns the target human CD98hc as expressed on normal blood cells, HUVEC cells and untreated U937 / THP-1 cells (human CD98hc having an N-glycan) (human) (UniProt P08195). Briefly: FACS on untreated THP-1 cells, MEM-108 at 2.5 µg/ml, PE anti-mouse IgG.
Assay [2] concerns the target human CD98hc with incomplete glycosylation (cells treated with tunicamycin, thapsigargin or bortezomib) (human) (UniProt P08195). Briefly: FACS on tunicamycin-treated THP-1 cells, MEM-108 at 2.5 µg/ml, PE anti-mouse IgG.
In assay [3] the target is human CD98hc as expressed on normal blood cells, HUVEC cells and untreated U937 / THP-1 cells (human CD98hc having an N-glycan) (human) (UniProt P08195). The assay is described as follows: FACS on untreated U937 cells, MEM-108 at 2.5 µg/ml, PE anti-mouse IgG.
In assay [4] the target is human CD98hc with incomplete glycosylation (cells treated with tunicamycin, thapsigargin or bortezomib) (human) (UniProt P08195). Briefly: FACS on tunicamycin-treated U937 cells, MEM-108 at 2.5 µg/ml, PE anti-mouse IgG.

Turning to “MEM-108 antibody (anti-human CD98 antibody, Biolegend)”, the MFI (corrected value obtained by dividing with an isotype control) (MFI / MFI of isotype control) in assay [1] is 29.4; in assay [2], 29.1; in assay [3], 11.8; in assay [4] it was 8.3.
